Source: paper PMC3557803

Key:
Test in all cases: UV-visible absorbance assay of deamination
Type in all cases: biochemical, Martinezella rhizogenes
Conditions in all cases: 20 mM HEPES pH 7.7
[1] = substrate: C[C@H](O)C(=O)C1=Nc2c(nc(N)[nH]c2=O)NC1
[2] = substrate: C[C@H](O)[C@H](O)C1=Nc2c(nc(N)[nH]c2=O)NC1
[3] = substrate: C[C@H](O)[C@H](O)c1cnc2[nH]c(N)nc(=O)c2n1
[4] = substrate: Nc1nc2[nH]c(=O)cnc2c(=O)[nH]1
[5] = substrate: Nc1nc2c(c(=O)[nH]1)N=C(CO)CN2
[6] = substrate: Nc1nc2c(c(=O)[nH]1)N=C([C@H](O)[C@H](O)CO)CN2
[7] = substrate: Nc1nc2nc(C(=O)O)cnc2c(=O)[nH]1
[8] = substrate: Nc1nc2ncc(C(=O)O)nc2c(=O)[nH]1
[9] = substrate: Nc1nc2ncc(C=O)nc2c(=O)[nH]1
[10] = substrate: Nc1nc2ncc(CNc3ccc(C(=O)N[C@@H](CCC(=O)O)C(=O)O)cc3)nc2c(=O)[nH]1
[11] = substrate: Nc1nc2ncc(CO)nc2c(=O)[nH]1
[12] = substrate: Nc1nc2ncc([C@H](O)[C@H](O)CO)nc2c(=O)[nH]1
[13] = substrate: Nc1nc2nccnc2c(=O)[nH]1

B1: Arad3529 (Rhizobium rhizogenes K84) (protein)
chain: MSYSFMSPPNAARFVLSNATVPAVTVVGFTGPSSEGLMKADIVVADGLIKDILPAGTAPAELAKADMRDGMVWPTFADMHTHLDKGHIWERRANPDGSFMGALDAVRSDREANWSAADVRKRMEFSLRAAYAHGTSLIRTHLDSLAPQHRISFEVFSEVREAWKDKIALQAVALFPLDFMVDDAFFADLTTVVREAGGLLGGVTQMNPDIDAQLDKLIRAAAANGLDIDLHVDETEDREVLTLKAIAAAVLRNGFTGKVTAGHCCSLARQDENVAAATIDLVAKAGISIVALPMCNMYLQDRHPGRTPRWRGVTLLHELAAAGVPTAVASDNTRDPFYAYGDLDPVEVFREAVRILHLDHPLDTAARVVTTSPASILGRPDIGRIAVGGPADLVLFSARRWSEFLSRPQSDRVVLRKGKVIDRSLPDYRELDTVIGA
For B1, the Km [1] was 22 ± 9 µM, the kcat [1] was 2.9 ± 0.3 s⁻¹ and the kcat/Km [1] was 130000 M⁻¹ s⁻¹. For the same protein, the Km [2] was 93 ± 13 µM, the kcat [2] was 0.09 ± 0.007 s⁻¹ and the kcat/Km [2] was 930 M⁻¹ s⁻¹. For the same protein, the Km [3] was 47 ± 9 µM, the kcat [3] was 46 ± 4 s⁻¹ and the kcat/Km [3] was 1e+06 M⁻¹ s⁻¹. The Km [4] was 5.7 ± 0.5 µM, the kcat [4] was 1.6 ± 0.1 s⁻¹ and the kcat/Km [4] was 280000 M⁻¹ s⁻¹. The Km [5] was 37 ± 7 µM, the kcat [5] was 1.2 ± 0.1 s⁻¹ and the kcat/Km [5] was 33000 M⁻¹ s⁻¹. The Km [6] was 200 ± 100 µM, the kcat [6] was 0.036 ± 0.008 s⁻¹ and the kcat/Km [6] was 260 M⁻¹ s⁻¹. The Km [7] was 13 ± 1 µM, the kcat [7] was 48 ± 2 s⁻¹ and the kcat/Km [7] was 3.7e+06 M⁻¹ s⁻¹. For the same protein, the Km [8] was 27 ± 2 µM, the kcat [8] was 110 ± 3 s⁻¹ and the kcat/Km [8] was 4e+06 M⁻¹ s⁻¹. For the same protein, the Km [9] was 12 ± 2 µM, the kcat [9] was 64 ± 12 s⁻¹ and the kcat/Km [9] was 5.2e+06 M⁻¹ s⁻¹. It also gave a Km [10] of 50 ± 10 µM, a kcat [10] of 6.4 ± 0.5 s⁻¹ and a kcat/Km [10] of 130000 M⁻¹ s⁻¹. It also gave a Km [11] of 23 ± 3 µM, a kcat [11] of 28 ± 1 s⁻¹ and a kcat/Km [11] of 1.2e+06 M⁻¹ s⁻¹. For the same protein, the Km [12] was 61 ± 7 µM, the kcat [12] was 19 ± 1 s⁻¹ and the kcat/Km [12] was 310000 M⁻¹ s⁻¹. For the same protein, the Km [13] was 39 ± 4 µM, the kcat [13] was 131 ± 4 s⁻¹ and the kcat/Km [13] was 3.3e+06 M⁻¹ s⁻¹.
